Assay results taken from a protein production outcome set (Wang et al. 2014).

Test: label from the status in PepcDB records

Sequence | protein production
MRLIEQAIEKIESGQVTEGLTALEEAAKTANHEMKYTVAETYYELGHLDKAQAIIDELLMLYPDEGGLYTFAAEILIDLNKEDEAIEMLNEIKEQDPAFLQAQLLLADLYQLQSLDEVAEQKLLKAYEVAPDEPIISFGLGEFYLERGDYIKSIPHLKRAKHGGLTNDQVNVSLKLAEAYSGSGQFEEALPHYDEGLKQKLDPHGLFGYGYTAYLLGDYVLAIEQFQALKALDPDFYDPIPVFGEGFRRGKSFRGSNGCFKRGDDRGLEHHHHHH | not failed
MRLKPLPSRPLLGGVLFFALVFAFAGINPWGGGHEGVWNAPREGGMALFALAALAGVLLERRGRGLSVGGGALLALLASAGFLLAGAASTLLSPQPIWSWTGYPSVGDGLRFWALGVAFAWAVFLALETRVLSPRGLFGALLLALGLHALAVFPQVVDWKLDYTQTQGQTYVRCFDRERTDCYENPNATASGIYRGQMPIGLTSHRGHAAGVLALLGLVAAGLYLRSPRPGLLLLFGLGALALWFTQTRGGWLALWGTLALLALGLTWKRPGRLRPALALFLVGALSYGLYLALGQMGVQEPRRFPELGASFAEANAYSSGRLELWRKALAALPLRPWLGWGFDGYARASPHAVDWNGEDRRFVPAALSLPVRLVQGEDRLFYLEDPTGLRLLAPAPYAKAHNLFLDLLLSVGVLGGAAYLLWLGAALRQASWAKLPFALAVAGYLLYGLTWYDSVHVTPLALLALGALVTREEVWRGA | failed
MRLLPRETGDGDRPRVARSARPRAGSAVEGALSAAQRPLRHGAYPRRATSPVARVRMVFLALVATLFALPALAEPKFPPLSGRVVDEAQVLSPDVERDLSDKLAALETRTGHQLVVATVSSLQGYPIEDYGYRLGRTWGIGDKDKDDGAILLVAPNDRQVRIEVGYGLEPVLTDALSSVIIQSAILPKFRDGDLSGGIVAGADAMIEQLGLPPEEAKARVADAARPERHEARGSPIVGFLILLFIIFVFSSLFRGRRGGLGSALPWIILSALNNSGRGGGGWGGGGGGGFSGGGGSFGGGGSSGRW | failed
MRLLYVIKKENPMDQMPNCPKCQSEYVYHDSINFVCPDCGNEWDNNEIQESDDDQLIVKDSNGNLLAEGDNVLLIKDLKLKGSSEVLKKGTKFKNIRLVNGDHNVDCGKIMLKSEFLKKA | failed
MRLLYVIKKENPMDQMPNCPKCQSEYVYHDSINFVCPDCGNEWDNNEIQESDDDQLIVKDSNGNLLAEGDNVLLIKDLKLKGSSEVLKKGTKFKNIRLVNGDHNVDCGKIMLKSEFLKKALEHHHHHH | not failed
MRLPRQIRLPHLRDIGALLTDSAREWSRHRASSKGAALSLYMVFSLAPMLILVIAVAGAFFGEEAVRSELFSQVRDLTGERGAEVIQTVLASAHESGSGWLAALLSICVLVFSATTAFAELKASLDELWDVKEDKSGLQGLVRSRMLSFGLVLVLALFLLLSLTLNAALGAAKGYYGDLWSTSAFAMAADWLSNLFSFAVVTALFAVVYKLLPSKRIPWLDVIPGAIVTAALFLAGKWGIGLYLERGTAVSAYGAAGSLIALLLWIYYSAQIFFFGAVFTRQFAERFGNLRRAAPA | not failed
MRLSAEQVVEVLRAAGESTRLRLLALLAAEELSVLELCRILDQSQPRVSRHLKLLAEAGLVERFPDGAWVFYRLAAKSPGRLLVEQALDLIDEGDETVQSDADKLAAVRAERSTDAQAYFARNAARWNEIRSLYVDEAEVEAAILRATGEGPFDEMVDLGAGAGRMLTLLGKRAANALGLDLSQQMLNIARDEVSKAGLTACELRHGDIFRTGLPGGCADLVTVHQVLHYLTDPATAVAEAARLVTPGGLLLIADFAPHGHEFLREVHQHRRLGFDDAEIVAWLQAAGLVLESNIALPPATAEGLTVKIWTARRPGKASLERSAA | failed
MRLSFGITSKLFVALFALSMVVALAMGAAVRWRFDTNFLDYVNAREAERMAVFAQSIESVYAEHGNWGVLRNDRQAWYRLIRREIGRTHAGPFGGPRGDAEPVPPFAPPPGDVPPPGLPPPPPDAGDRPPQHPPGEGPGMHPPIWLLDAGRVPIVGDGPPPGPGSQWHALHHNGQTVGWLATPQRMHVPEGADQAFLAQQLRATWIIAALSVLLAAGVAILLARGVLAPMRRLAHATRRMAEGDYAARVDVHSGDEIGHLADDFNRLAETLEANQKMRRQLTADISHELRTPLAVLRGELEALEDGVRALTPASLTSLQAEVGTLSKLIDDLYELSLADVGALAFHMESIDLADTVCSAAQGFTPRLMDKRIALQLDLPTGPSRDAAIQGDPQRLRQLMQNLLENTLRYTDAGGTLRIHVHRAGAWWCLDVQDSAPGVPEAMLPRVFDRLFRADPSRGRAQGGAGLGLSLCQTIVQTHGGTIDARPSPLGGLWIAIRLPAANSSVADHDPDR | failed
